Where two headings read alike, the source gives them in different places.
Assays:
[1] = biological target: human Sirpα-V1-his (human) (UniProt P78324); experiment: blocking ELISA: hSirpα to CD47 (dimer)
[2] = biological target: human T cells (expressing Sirpγ) (human) (UniProt Q9P1W8); experiment: flow cytometry on human PBMC T cells
[3] = biological target: human Sirpα-V1-his (human) (UniProt P78324); experiment: blocking ELISA: hSirpα to hCD47 (dimer)
[4] = biological target: human T cells (expressing Sirpγ) (human) (UniProt Q9P1W8); experiment: flow cytometry on human PBMC T cells, 10 µg/mL
[5] = biological target: human Sirpα-V1-hFc (human) (UniProt P78324); experiment: blocking ELISA: hSirpα (dimer) to CD47
[6] = biological target: human Sirpα-V1 on CHO-K1 hSirpα+ cells (human) (UniProt P78324); experiment: cell ELISA on CHO-K1 hSirpα+ cells
[7] = biological target: human Sirpα-V1 recombinant protein (human) (UniProt P78324); experiment: ELISA
human Sirpβ-his (human) = human Sirpβ-his (human) (UniProt O00241); experiment: ELISA
[8] = biological target: human Sirpα-V1 on CHO-K1 hSirpα+ cells (human) (UniProt P78324); experiment: cell ELISA on hSirpα-v1+ cell strain
[9] = biological target: human Sirpα-V1 recombinant protein (human) (UniProt P78324); experiment: ELISA; remark: listed apart in the source
[10] = biological target: human Sirpα-V1 recombinant protein (human) (UniProt P78324); experiment: ELISA; remark: listed apart in the source
[11] = biological target: human Sirpα-V1-hFc (human) (UniProt P78324); experiment: blocking ELISA: hSirpα (dimer) to hCD47

IC50 [1]: 4.16 nM
T-cell binding activity (% binding) [2]: 1.79%
IC50 [3]: 4.58 nM
proportion of cells with fluorescence intensity above 10^3 [4]: 0.49%
IC50 [5]: 3.74 nM
EC50 [6]: 0.37 nM
EC50 [7]: 0.057 nM
EC50 (human Sirpβ-his (human)): 0.126 nM
EC50 [8]: 0.084 nM
EC50 [9]: 0.072 nM
EC50 [10]: 0.17 nM
IC50 [11]: 4.55 nM
Substance: positive control antibody 1 (Ref1, OSE-172)

Source: US12577303B2
